Data published in patent publication US20170029474A1.
Where two headings read alike, the source gives them in different places.

Key:
Recombinant HB-EGF [1] = molecular target: Recombinant HB-EGF (UniProt Q99075); test: cell-based or functional assay
Recombinant HB-EGF [2] = molecular target: Recombinant HB-EGF (UniProt Q99075); test: cell-based or functional assay; remark: listed apart in the source
[3] = molecular target: C-terminal His-tagged HB-EGF lacking the heparin-binding domain (UniProt Q99075); test: SPR, Biacore T200, His-tagged HB-EGF captured on NTA chip
C-terminal His-tagged HB-EGF lacking the heparin-binding domain, sequence (Q99075 other isoform, or with tags, fused parts or gaps limits assumed): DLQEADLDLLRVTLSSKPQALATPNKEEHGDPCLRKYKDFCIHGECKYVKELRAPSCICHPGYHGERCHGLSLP

Recombinant HB-EGF, sequence (Q99075 63-148 limits assumed): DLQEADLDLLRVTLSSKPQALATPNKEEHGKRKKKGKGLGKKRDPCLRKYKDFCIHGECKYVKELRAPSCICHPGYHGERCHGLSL

| Substance | ID50 [nM], HB-EGF-dependent growth of DER cells (Recombinant HB-EGF [1]) [nM] | DER cell assay ID50 (Recombinant HB-EGF [1]) [nM] | DER cell assay ID50 (Recombinant HB-EGF [2]) [nM] | DER cell assay Relative values (relative to CRM197) (Recombinant HB-EGF [2]) | Relative values (KA, against CRM197) (relative to CRM197) [3] |
| --- | --- | --- | --- | --- | --- |
| MBP-R (V468T) (from UniProt P00587 405-560) | 6.2 |  |  |  |  |
| CRM197 (from UniProt P00587 26-560) | 1.2 | 1.2 | 1.02 | 1 | 1 |
| MBP-R (H520K) (from UniProt P00587 405-560) | 6 |  |  |  |  |
| MBP-R (D507N) (from UniProt P00587 405-560) | 4.5 |  |  |  |  |
